Source: patent publication US6635450 (FRED HUTCHINSON CANCER RESEARCH CENTER, dated 2003)

Molecular target: Cdk2 alone (baculoviral HA-tagged Cdk2 immunoadsorbed to sepharose beads) (UniProt P24941 1-298)
Test: depletion of the Cdk2 inhibitor from Mv1Lu cell extracts on Cdk2 sepharose beads, read by cyclin E-associated H1 kinase activity
Description: Cyclin E-Cdk2 sepharose was prepared by mixing 1.2 µl of Sf9 cell lysate containing Hemagglutinin tagged Cdk2 (Cdk2 -HA) with 12 µl lysate containing cyclin E in buffer A (30 mM HEPES-KCH pH 7.5, 7.5 mM MgCl_2, 1 mM DTT) containing 10 mM ATP and incubated at room temperature for 30 minutes to allow complete formation. The assembly reaction was then adjusted to 250 mM NaCl and 0.5% NP40. The Cdk2-HA containing complexes were immunoprecipitated with the 12CA5 monoclonal antibody (BABCO) and collected on protein A-sepharose. Cdk2 sepharose was prepared in an identical manner except cyclin E was omitted. Immunoprecipitates were washed twice with NP40 RIPA buffer ([…], 250 mM NaCl, 10 mM EDTA, 20 mM Tris-HCl pH 7.4) and four times with buffer A. The matrix was divided into 4 aliquots and incubated with 100 µg of cell extract in buffer A containing 3 mM ATP, 20 µg/ml creatine phosphokinase, 40 mM phospho-creatine for 45 minutes at 37° C. After incubation the supernatant was collected and assayed for Cdk2 activation by addition of recombinant cyclin E as described below. A critical parameter in the execution of this experiment is to ensure that no cyclin, Cdk or complex leaks from the beads into the cell extract. This is unpredictable and must be checked by immunoblotting each time the experiment is performed.

B1: p27 protein, the 27 kD cyclin E-Cdk2 binding protein of Mv1Lu mink epithelial cells (endogenous) (other)
chain: MSNVRVSNGSPSLERMDARQAEYPKPSACRNLFGPVNHEELTRDLEKHRRDMEEASQRKWNFDFQNHKPLEGKYEWQEVEKGSLPEFYYRPPRPPKGACKVPAQESQDVSGTRQAVPLMGSQANSEDTHLVDQKTDTADNQAGLAEQCTGIRKRPATDDSSPQNKRANRTEENVSDGS
notes: also called p27^Kip1; Kip1
  binding result: no binding
